The record followed here is US5728561.

Test [1] concerns the target E1-beta of plasmid pCD705, with the C-terminal part of the E1-beta open reading frame in the wrong orientation (Streptomyces avermitilis).
Test [2] addresses E1-beta subunit of S. avermitilis BCKDH (Streptomyces avermitilis).

Turning to “E1-alpha subunit of S. avermitilis BCKDH (enzyme)”, the E1 BCKDH specific activity in test [1] stood at 0.5 pmol/min/mg; in test [2], 13.7 pmol/min/mg.
